We go through one substance from patent US20040209282A1.

The target of assay [1] is purified IgM antibody (38C13). As to the kind of experiment: antibody microarray on FAST slide, goat anti-mouse IgM-HRP detection, chemiluminescence.
The target in assay [2] is 38C13 IgM surface receptor (idiotype receptor) of 38C13 B lymphoma cells. As to the kind of experiment: antibody microarray probed with 38C13 cell extract, goat anti-mouse IgM-HRP detection.
Assay [3] has the same target. The experiment in a line: cell capture microarray, 38C13 cells growing in culture, no washing, microscopy.
For assay [4] the target is unchanged. As to the kind of experiment: cell capture microarray, previously frozen 38C13 cells, microscopy.

In assay [1], “S1C5 anti-idiotype monoclonal antibody (anti-IgM antibody)” showed an IgM concentration at which a strong signal was seen of 0.1 µg/mL and a lowest spotted S1C5 concentration giving a strong signal of 25 µg/mL. Also, in assay [2], the extract dilution at which 38C13 IgM was detected (fold dilution (1:x)) was 2000 and the lowest printed S1C5 concentration at which 38C13 IgM of the extract was detected amounted to 50 µg/mL. Also, the lowest printed antibody concentration at which bound cells were detected in assay [3] worked out at 3.12 µg/mL. The same substance had a lowest printed antibody concentration at which bound cells were detected in assay [4] of 6.25 µg/mL.
